From US20150050278A1
Each block holds one binder with its values, some of them ahead of it.

Columns and labels:
gp140 [1] = assay: ELISA (FIG. 10)
gp140 [2] = assay: ELISA on gp140, OD405
nucleolin = nucleolin (UniProt P19338); assay: ELISA (FIG. 11)

affinity (gp140 [1]): 50 nM | EC50 (read off the curve) (gp140 [2]): 80 nM
B1: gg37 (designed binder)
chain: APELLGGPSVFLFPPTPKDTLMISRTPEVTCVVVDVSHEDPEVKFNWYVDGVEVHNAKTKPREEQYNSTYGVSSGLTVLHQDWLNGKEYKCKVSNKALPAPIEKTISKAKGQPREPQVYTSPPSRDELTKNQVSLRCHVKGFYPSDIAVEWESNGQGARGGMNWFDPWVPVLDSDGSFFLYGKLTVDKSRWQQGNVFSCSVMHEALHNHYTQKSLSLSPGK

affinity (nucleolin): 50 nM
B2: gn1 (designed binder)
chain: APELLGGPSVFLFPPSPKDTLMISRTPEVTCVVVDVSHEDPEVKFNWYVDGVEVHNAKTKPREEQYNSTYSVASLLTVLHQDWLNGKEYKCKVSNKALPAPIEKTISKAKGQPREPQVYTSPPSRDELTKNQVSLRCHVKGFYPSDIAVEWESNGQGAKGSSGSTWGYGMDVWVPVLDSDSSFFLYSKLTVDKSRWQQGNVFSCSVMHEALHNHYTQKSLSLSPGK
